Measured values from patent US20240301076A1 (CEPHALON, published 2024).

T1: human CXCR2 (human, UniProt P25025 1-360)
T1 construct: also called CXC chemokine receptor 2; hCXCR2
T1 sequence: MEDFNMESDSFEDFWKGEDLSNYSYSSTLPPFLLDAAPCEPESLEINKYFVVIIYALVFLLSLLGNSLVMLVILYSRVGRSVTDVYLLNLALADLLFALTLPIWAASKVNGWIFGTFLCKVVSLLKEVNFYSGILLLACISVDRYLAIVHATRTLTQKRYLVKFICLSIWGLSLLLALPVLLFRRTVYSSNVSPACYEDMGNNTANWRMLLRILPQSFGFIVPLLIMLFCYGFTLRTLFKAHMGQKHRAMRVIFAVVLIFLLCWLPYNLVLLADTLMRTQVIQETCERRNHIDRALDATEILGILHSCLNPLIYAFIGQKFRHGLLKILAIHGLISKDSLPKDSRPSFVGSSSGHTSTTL

T2: human CXCR1 (human, UniProt P25024 1-350)
T2 sequence: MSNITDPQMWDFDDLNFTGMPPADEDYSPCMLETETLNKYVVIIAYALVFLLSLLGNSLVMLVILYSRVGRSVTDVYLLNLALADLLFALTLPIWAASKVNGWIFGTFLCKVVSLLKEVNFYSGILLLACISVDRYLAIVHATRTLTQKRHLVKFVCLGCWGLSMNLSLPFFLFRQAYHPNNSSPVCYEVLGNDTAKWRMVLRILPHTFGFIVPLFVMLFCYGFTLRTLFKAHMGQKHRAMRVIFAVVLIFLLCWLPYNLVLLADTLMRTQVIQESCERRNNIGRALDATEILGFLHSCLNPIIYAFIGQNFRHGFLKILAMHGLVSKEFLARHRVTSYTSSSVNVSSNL


How the values were obtained:
[1] = molecular target: T1, human CXCR2; test: flow cytometry, transfected Expi293F cells
Protocol: (§1) Harvested cells were resuspended in FACS buffer (1×PBS+0.5% (w/v) bovine serum albumin (BSA)+2 mM EDTA pH 7.2). Approximately 2×10⁵ cells were added per well in a 96-well round-bottomed plate. Cells were pelleted by centrifugation at 400 g for 5 mins at 4° C. and supernatants discarded. 25 μL of each test antibody or control antibody was added to the cells and incubated for 30 minutes at 4° C. Cells were washed twice in 100 μL FACS buffer followed by centrifugation at 400 g for 5 mins at 4° C.
(§2) For detection, 50 μL of secondary antibody (Table 2) was added to relevant samples. Commercially available antibodies that bound to transfected CXCR family members were used as positive controls to ensure that the cells were expressing the receptors. Cells were washed twice in 200 μL of FACS buffer followed by centrifugation at 400 g for 5 mins at 4° C. Before sample acquisition, cells were resuspended in 100 μL of FACS buffer. Samples were acquired using the high throughput sampler on a FACSCanto™ II cytometer (Beckton-Dickinson).
(§3) These antibody variable regions were then generated by gene synthesis and subcloned into mammalian expression vectors as described in General Methods. Antibodies were produced by co-expression of heavy and light chain plasmids in Expi293F™ cells and purified by protein A column chromatography as described in General Methods. Where several heavy and/or light chains were identified from the same hybridoma cells, each heavy chain was paired with each light chain and the resulting antibodies given suffix a, b, c, etc. Purified antibodies were desalted into Sorensen's PBS pH 5.8 and tested by flow cytometry for binding to Expi293F™ cells transfected with human CXCR2 or human CXCR1 and mock transfected Expi293F™ cells.

[2] = molecular target: T2, human CXCR1; test: flow cytometry, transfected Expi293F cells
Protocol: as §1, §2, §3

[3] = molecular target: T1, human CXCR2; test: cell-based or functional assay
[4] = molecular target: T1, human CXCR2; test: flow cytometry, CXCR2-transfected Expi293F cells
Protocol: as §1, §2
Each variant heavy chain was co-expressed with the parental light chain and vice versa.

| Binder | binding result [1] | binding result [2] | IC50, CXCL1, Tango assay [3] [nM] | IC50, CXCL8, Tango assay [3] [nM] | Fold change in binding relative to BKO-4A8 [4] [fold] |
| --- | --- | --- | --- | --- | --- |
| BKO-4A8 variant VH M96K (antibody, human IgG4 S228P, lambda, V domains shown, IgG4 S228P, lambda; parental light chain; also called 4A8 VH M96K) VH: EVQLLESGGGLVQPGGSLRLSCAASGFTFSSSTMSWVRQAPGKGLEWVSAISGRGRNTYYADSVKGRFTISRDNSRNTLYLQMNSLRAEDTAVYYCAIQKGYWGQGILVTVSS VL: QSALTQPPSASGSPGQSVTISCIGTSSDVGGYNYVSWYQQHPDKAPKLMIYEVNKRPSGVPDRFSGSKSGNTASLTVSGLQAEDEADYYCSSYAGNNNFGVFGGGTKLTVLG |  |  | 0.135 | 0.091 | 1 |
| BKO-4A8 variant VH N56S (antibody, human IgG4 S228P, lambda, V domains shown, IgG4 S228P, lambda; parental light chain; also called 4A8 VH N56S) VH: EVQLLESGGGLVQPGGSLRLSCAASGFTFSSSTMSWVRQAPGKGLEWVSAISGRGRSTYYADSVKGRFTISRDNSRNTLYLQMNSLRAEDTAVYYCAIQMGYWGQGILVTVSS VL: QSALTQPPSASGSPGQSVTISCIGTSSDVGGYNYVSWYQQHPDKAPKLMIYEVNKRPSGVPDRFSGSKSGNTASLTVSGLQAEDEADYYCSSYAGNNNFGVFGGGTKLTVLG |  |  | 0.158 | 0.129 | 1 |
| BKO-4A8 variant VL N94K (antibody, human IgG4 S228P, lambda, V domains shown, IgG4 S228P, lambda; parental heavy chain; also called 4A8 VL N94K) VH: EVQLLESGGGLVQPGGSLRLSCAASGFTFSSSTMSWVRQAPGKGLEWVSAISGRGRNTYYADSVKGRFTISRDNSRNTLYLQMNSLRAEDTAVYYCAIQMGYWGQGILVTVSS VL: QSALTQPPSASGSPGQSVTISCIGTSSDVGGYNYVSWYQQHPDKAPKLMIYEVNKRPSGVPDRFSGSKSGNTASLTVSGLQAEDEADYYCSSYAGKNNFGVFGGGTKLTVLG |  |  | 0.123 | 0.113 | 1.33 |
| BKO-4A8 variant VH M96Q (antibody, human IgG4 S228P, lambda, V domains shown, IgG4 S228P, lambda; parental light chain; also called 4A8 VH M96Q) VH: EVQLLESGGGLVQPGGSLRLSCAASGFTFSSSTMSWVRQAPGKGLEWVSAISGRGRNTYYADSVKGRFTISRDNSRNTLYLQMNSLRAEDTAVYYCAIQQGYWGQGILVTVSS VL: QSALTQPPSASGSPGQSVTISCIGTSSDVGGYNYVSWYQQHPDKAPKLMIYEVNKRPSGVPDRFSGSKSGNTASLTVSGLQAEDEADYYCSSYAGNNNFGVFGGGTKLTVLG |  |  | 0.33 | 0.14 | 1.5 |
| BKO-4A8 variant VL N52S (antibody, human IgG4 S228P, lambda, V domains shown, IgG4 S228P, lambda; parental heavy chain; also called 4A8 VL N52S) VH: EVQLLESGGGLVQPGGSLRLSCAASGFTFSSSTMSWVRQAPGKGLEWVSAISGRGRNTYYADSVKGRFTISRDNSRNTLYLQMNSLRAEDTAVYYCAIQMGYWGQGILVTVSS VL: QSALTQPPSASGSPGQSVTISCIGTSSDVGGYNYVSWYQQHPDKAPKLMIYEVSKRPSGVPDRFSGSKSGNTASLTVSGLQAEDEADYYCSSYAGNNNFGVFGGGTKLTVLG |  |  | 0.214 | 0.126 | 1 |
| BKO-1B10 (antibody, human IgG4 S228P, lambda, V domains shown, recombinant human IgG4 S228P, lambda) VH: QLQLQESGPGLVKPSETLSLTCTVSGGSIRTSSYYWGWIRQPPGKGLEYIGSIYYSGTTYYNPSLKSRVTMSVDTSKNQFSLKLSSVTAADTAVYYCARHGRVREVPPFDYWGQGTLVTVSS VL: SSELTQDPAVSVALGQTVRITCQGDSLRYYYASWYQQKPGQAPVLVIYDENSRPSGIPDRFSGSSSGNTASLRITGTQAEDEADYYCNSRDTSGNHWAFGGGTKLTVLG | binds | no binding |  |  |  |

The next lines start with the values.

| binding result [1] | binding result [2] | IC50, CXCL1, Tango assay [3] [nM] | IC50, CXCL8, Tango assay [3] [nM] | Fold change in binding relative to BKO-4A8 [4] [fold] | Binder |
| --- | --- | --- | --- | --- | --- |
| binds | no binding |  |  |  | BKO-3A9_b (antibody, human IgG4 S228P, lambda, V domains shown, recombinant human IgG4 S228P, lambda) VH: QVQVQQSGPGLVKPSQTLSLTCAISGDSVSSNSAAWNWIRQSPSRGLEWLGRTYYRSKWYNDYAVSLKRRITIRPDTSRNHFSLHLSSVTPEDTAVYYCVRAYCGGGSCLDYWGQGTLVTVSS VL: QSALTQPASASGSPGQSITISCTGTSSDVGNYNRVSWYQQHPGKVPKLMIYEGSKRPSGISNRFSGSKSGNTASLTISGLQPEDEADYFCCSYAGSNTLVFGGGTKLTVLG |
| binds | no binding |  |  |  | BKO-2D8 (antibody, human IgG4 S228P, lambda, V domains shown, recombinant human IgG4 S228P, lambda) VH: EVQLLESGGGLVQPGGSLRLSCAASGYTFTSSTMSWVRQAPGKGLEWVTAISGRGGRTYYADSVKGRFTISRDNSKNTLYLQMNSLRAEDTAVYYCAIQLGNWGQGILVTVSS VL: QSALTQPPSASGSPGQSVTISCTGTSSDIGGYNYVSWYQQHPGKAPKLVIYEVNMRPSGVPARFSGSKSGNTASLTVSGLQAEDEADYYCSSYAGNDNFGVFGGGTKLSVLG |
| binds | no binding |  |  |  | BKO-1D1 (antibody, human IgG4 S228P, lambda, V domains shown, recombinant human IgG4 S228P, lambda) VH: EVQLLESGGGLVQPGGSLRLSCAASKLTFKNSAMSWVRQAPGKGLEWVSAITGSGGRTYYADSVKGRFTISRDNSKNTLYLQMNSLRAEDTAIYYCAIQMGYWGQGILVTVSS VL: QSALTQPPSASGSPGQSVTISCTGTSSDVGGYNYVSWYQQHPGKAPKLMIYEVNKRPSGVPARFSGSKSGNTASLTVSGLQAEDEADYYCSSYAGSNNFGVFGGGTKLTVLG |
| binds | no binding |  |  |  | BKO-1H3 (antibody, human IgG4 S228P, lambda, V domains shown, recombinant human IgG4 S228P, lambda) VH: EVQLLESGGGLVQPGGSLRLSCAASGFTLSRSSTSWVRQTPGKGLEWVSAISGSGGRTYYADSVKGRFTISRDNSKNTLYLQMNSLRAEDTAVYYCAIQLGYWGQGILVTVSS VL: QSALTQPASVSGSPGQSITISCTGTSSDVGGYNYVSWYQQHPGKAPKLMIYDVSNRPSGVSNRFSGSKSGNTASLTISGLQAEDEADYYCSSYTSSSTWVFGGGTKLTVLG |
|  |  | 0.213 | 0.084 | 1 | BKO-4A8 variant VL N95aQ (antibody, human IgG4 S228P, lambda, V domains shown, IgG4 S228P, lambda; parental heavy chain; also called 4A8 VL N95aQ) VH: EVQLLESGGGLVQPGGSLRLSCAASGFTFSSSTMSWVRQAPGKGLEWVSAISGRGRNTYYADSVKGRFTISRDNSRNTLYLQMNSLRAEDTAVYYCAIQMGYWGQGILVTVSS VL: QSALTQPPSASGSPGQSVTISCIGTSSDVGGYNYVSWYQQHPDKAPKLMIYEVNKRPSGVPDRFSGSKSGNTASLTVSGLQAEDEADYYCSSYAGNNQFGVFGGGTKLTVLG |
|  |  | 0.149 | 0.169 | 1 | BKO-4A8 variant VL N94S (antibody, human IgG4 S228P, lambda, V domains shown, IgG4 S228P, lambda; parental heavy chain; also called 4A8 VL N94S) VH: EVQLLESGGGLVQPGGSLRLSCAASGFTFSSSTMSWVRQAPGKGLEWVSAISGRGRNTYYADSVKGRFTISRDNSRNTLYLQMNSLRAEDTAVYYCAIQMGYWGQGILVTVSS VL: QSALTQPPSASGSPGQSVTISCIGTSSDVGGYNYVSWYQQHPDKAPKLMIYEVNKRPSGVPDRFSGSKSGNTASLTVSGLQAEDEADYYCSSYAGSNNFGVFGGGTKLTVLG |
|  |  | 0.164 | 0.105 | 0.5 | BKO-4A8 variant VL N94Y (antibody, human IgG4 S228P, lambda, V domains shown, IgG4 S228P, lambda; parental heavy chain; also called 4A8 VL N94Y) VH: EVQLLESGGGLVQPGGSLRLSCAASGFTFSSSTMSWVRQAPGKGLEWVSAISGRGRNTYYADSVKGRFTISRDNSRNTLYLQMNSLRAEDTAVYYCAIQMGYWGQGILVTVSS VL: QSALTQPPSASGSPGQSVTISCIGTSSDVGGYNYVSWYQQHPDKAPKLMIYEVNKRPSGVPDRFSGSKSGNTASLTVSGLQAEDEADYYCSSYAGYNNFGVFGGGTKLTVLG |
| binds | no binding |  |  |  | BKO-1A1 (antibody, human IgG4 S228P, lambda, V domains shown, recombinant human IgG4 S228P, lambda) VH: QLQLQESGPGLVKPSETLSLTCTVSGGSIRTSSYYWGWIRQPPGKGLEYIGSIYYSGTTYYNPSLKSRVTMSVDTSKNQFSLKMSSVTAADSAVYYCARHGRVREVPPFDYWGQGTLVTVSS VL: SSELTQDPAVSVALGQTVRITCQGDSLRYYYASWYQQKPGQAPVLVIYDENSRPSGIPDRFSGSSSGNTASLSITGTQAEDEADYYCNSRDTSGNHWAFGGGTKLTVLG |
